Patent CN111349168A (DONGGUAN PENGZHI BIOTECHNOLOGY CO LTD, dated 2020)

Molecular target: T1, CKMB(PAJ18) (human, UniProt P06732 1-381; P12277 1-381)
T1 construct: Antigen reagent named only as CKMB(PAJ18); Its source and construct are not described; also called 杂化型肌酸激酶同工酶; CKMB抗原
Experiment: biolayer interferometry, antibody captured on AMC sensor, CKMB in solution

T1 sequence (P06732 whole entry, chain 1 of 2): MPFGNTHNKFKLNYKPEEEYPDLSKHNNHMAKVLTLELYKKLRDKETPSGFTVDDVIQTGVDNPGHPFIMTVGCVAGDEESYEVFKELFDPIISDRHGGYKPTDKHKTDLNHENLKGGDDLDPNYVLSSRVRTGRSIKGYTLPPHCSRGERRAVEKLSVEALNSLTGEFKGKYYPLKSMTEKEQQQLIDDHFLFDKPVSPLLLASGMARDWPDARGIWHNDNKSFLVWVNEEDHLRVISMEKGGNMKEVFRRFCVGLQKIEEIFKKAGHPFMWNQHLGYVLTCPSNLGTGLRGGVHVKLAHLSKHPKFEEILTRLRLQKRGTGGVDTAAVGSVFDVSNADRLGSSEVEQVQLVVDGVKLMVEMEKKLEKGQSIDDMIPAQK
T1 sequence (P12277 whole entry, chain 2 of 2): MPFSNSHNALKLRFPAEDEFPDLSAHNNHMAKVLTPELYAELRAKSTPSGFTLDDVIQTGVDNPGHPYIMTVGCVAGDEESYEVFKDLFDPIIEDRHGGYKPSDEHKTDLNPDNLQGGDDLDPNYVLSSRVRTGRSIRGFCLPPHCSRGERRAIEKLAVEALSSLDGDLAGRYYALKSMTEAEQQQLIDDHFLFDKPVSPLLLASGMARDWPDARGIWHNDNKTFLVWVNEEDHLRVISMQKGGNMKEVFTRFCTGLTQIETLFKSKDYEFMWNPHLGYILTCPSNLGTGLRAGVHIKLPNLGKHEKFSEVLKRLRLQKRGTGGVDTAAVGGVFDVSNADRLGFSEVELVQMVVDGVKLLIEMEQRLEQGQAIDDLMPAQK

- Kd: 77.6 nM
- koff: 0.00512 s⁻¹
- kon: 66000 M⁻¹ s⁻¹
B1: Anti-CKMB 10C5 recombinant antibody (WT) (antibody, V domains shown)
VH: DVQLQESGPGLVKPSQTMSLTCTVTGVSITTGTDRWSWIRQFPGNKLEWIGYIFYSGTLTYNPSVTSRTTITRDTSKNQFFLEMNSLTAEDTATYYCARERTYYPYGYFDVFGTGTTVTVSS
VL: DIQMNQSPSSLSASLGDTITITCHGSNNINIWLSWYQQKPGNTPKLLIYKGSDIHTGVSSRFSGSGSGTAFTLTISSLQPEDIATYYCQQAQSYAWTWGGGTKLEIK
